From article PMC7064760

Biological target: HA-tagged p26 (long-distance movement protein p26 of Pea enation mosaic virus 2) (Pea enation mosaic virus 2)
Experiment: SDS-PAGE and Western blot; lysates of agroinfiltrated N. benthamiana leaves (10x PBS, 2% beta-mercaptoethanol), 10% SDS-PAGE, blot with anti-HA antibody; co-infiltrated with p14, GFP-3'UTR(PEMV) and U1D

“HA-tagged p26 (long-distance movement protein p26 of Pea enation mosaic virus 2) (natural protein)” showed a stoichiometry N of 2.
